Experimental findings from article PMC11988671, “SIRT7 Is a Lysine Deacylase with a Preference for Depropionylation and Demyristoylation” (International Journal of Molecular Sciences, 2025) are described below.

Substrate in data set [1]: NC(=O)c1ccc[n+]([C@@H]2O[C@H](COP(=O)([O-])OP(=O)(O)OC[C@H]3O[C@@H](n4cnc5c(N)ncnc54)[C@H](O)[C@@H]3O)[C@@H](O)[C@H]2O)c1
Briefly: Enzyme kinetics with variable NAD^+ (in vitro deacylation, Michaelis-Menten), SIRT7 in presence of RNA. As to conditions: for Km: in the presence of RNA; for kcat: NAD^+-dependent deacylation. Format: biochemical, mouse. Here is the method: (§1) In the case of the SIRT1 enzymatic reaction, 8 µM peptide was incubated in 50 µL reaction buffer containing 10 mM NaCl, 10 mM KCl, 20 mM Tris-HCl pH 8.0, 1.0 mM NAD^+, and 1 mM DTT, with or without 1 µg recombinant SIRT1. The reaction mixtures were incubated for 24 h for SIRT7 or 2 h for SIRT1 at 37 °C.
(§2) For enzyme kinetics with variable concentrations of the NAD^+ substrate, an in vitro deacylation assay was performed using wild-type SIRT7 and SIRT1 with serial dilutions of the NAD^+ substrate. The reaction was incubated at 37 °C for the appropriate time, which was within the linear part of the progression curve (60 min for SIRT7 and 10 min for SIRT1). […] Each enzymatic assay was conducted in triplicate, and the resulting data were plotted and fitted to the Michaelis–Menten equation using GraphPad Prism version 8.0.2 (GraphPad Software, Boston, MA, USA).
(§3) The general conditions for electrospray ionization-MS were as follows: nebulizer gas, N2, delivered at 50 psi; nebulizer gas temperature, 250 °C; capillary voltage, 3500 V; and collision gas, G1 grade N2 (Taiyo Nippon Sanso Corporation, Tokyo, Japan).

Substrate in data set [2]: NC(=O)c1ccc[n+]([C@@H]2O[C@H](COP(=O)([O-])OP(=O)(O)OC[C@H]3O[C@@H](n4cnc5c(N)ncnc54)[C@H](O)[C@@H]3O)[C@@H](O)[C@H]2O)c1
The experiment in a line: Enzyme kinetics with variable NAD^+ (in vitro deacetylation, Michaelis-Menten), SIRT1. It is filed as biochemical, mouse. As to conditions: other: SIRT1 with the H3K9Ac peptide. On the procedure: as §1, §2, §3

“And” between values parts separate entries of the source, which are not always exact repeats. Equal values may be shown once.

B1: SIRT7 (Mus musculus) (protein)
chain: MAAGGGLSRSERKAAERVRRLREEQQRERLRQVSRILRKAAAERSAEEGRLLAESEDLVTELQGRSRRREGLKRRQEEVCDDPEELRRKVRELAGAVRSARHLVVYTGAGISTAASIPDYRGPNGVWTLLQKGRPVSAADLSEAEPTLTHMSITRLHEQKLVQHVVSQNCDGLHLRSGLPRTAISELHGNMYIEVCTSCIPNREYVRVFDVTERTALHRHLTGRTCHKCGTQLRDTIVHFGERGTLGQPLNWEAATEAASKADTILCLGSSLKVLKKYPRLWCMTKPPSRRPKLYIVNLQWTPKDDWAALKLHGKCDDVMQLLMNELGLEIPVYNRWQDPIFSLATPLRAGEEGSHSRKSLCRSREEAPPGDQSDPLASAPPILGGWFGRGCAKRAKRKKVA
notes: HaloTag (N, cleaved yes); made in house; host or cells: E. coli K12 KRX
For B1, the kcat/Km in data set [1] (other: acetyl H3K18 peptide) was determined as 0.844 ± 0.024 M⁻¹ s⁻¹; in data set [1] (other: butyryl H3K18 peptide), 2.10 ± 0.061 M⁻¹ s⁻¹; in data set [1] (other: myristoyl H3K18 peptide), 11.9 ± 0.695 M⁻¹ s⁻¹; in data set [1] (other: octanoyl H3K18 peptide), 3.74 ± 0.124 M⁻¹ s⁻¹; in data set [1] (other: palmitoyl H3K18 peptide), 2.35 ± 0.224 M⁻¹ s⁻¹; in data set [1] (other: propionyl H3K18 peptide) it was 10.9 ± 0.633 M⁻¹ s⁻¹. For the same protein, the kcat/Km in data set [1] (other: succinyl H3K18 peptide) stood at 2.01 ± 0.390 M⁻¹ s⁻¹. For the same protein, the Km in data set [1] (other: acetyl H3K18 peptide (H3K18Ac)) was 445.3 ± 28.5 µM; in data set [1] (other: butyryl H3K18 peptide), 678.6 ± 83.6 µM; in data set [1] (other: myristoyl H3K18 peptide), 153 µM and 153.2 ± 8.8 µM; in data set [1] (other: octanoyl H3K18 peptide), 470.0 ± 16.7 µM; in data set [1] (other: palmitoyl H3K18 peptide) it was 633 µM and 633.5 ± 37.5 µM; in data set [1] (other: propionyl H3K18 peptide), 185.1 ± 7.6 µM. The Km in data set [1] (other: succinyl H3K18 peptide) was 114 µM and 114.9 ± 30.4 µM. The kcat in data set [1] (other: acetyl H3K18 peptide) amounted to 0.000376 ± 1.52e-05 s⁻¹; in data set [1] (other: butyryl H3K18 peptide) it was 0.00143 ± 0.00015 s⁻¹; in data set [1] (other: myristoyl H3K18 peptide), 0.00183 ± 8.23e-05 s⁻¹; in data set [1] (other: octanoyl H3K18 peptide), 0.00176 ± 6.48e-05 s⁻¹; in data set [1] (other: palmitoyl H3K18 peptide) it was 0.00149 ± 0.000101 s⁻¹; in data set [1] (other: propionyl H3K18 peptide), 0.00202 ± 4.14e-05 s⁻¹. Further, the catalytic constant (kcat) in data set [1] (other: succinyl H3K18 peptide) was found to be 0.000224 ± 1.68e-05 s⁻¹.

B2: SIRT1 (Mus musculus) (protein)
chain: MADEVALALQAAGSPSAAAAMEAASQPADEPLRKRPRRDGPGLGRSPGEPSAAVAPAAAGCEAASAAAPAALWREAAGAAASAEREAPATAVAGDGDNGSGLRREPRAADDFDDDEGEEEDEAAAAAAAAAIGYRDNLLLTDGLLTNGFHSCESDDDDRTSHASSSDWTPRPRIGPYTFVQQHLMIGTDPRTILKDLLPETIPPPELDDMTLWQIVINILSEPPKRKKRKDINTIEDAVKLLQECKKIIVLTGAGVSVSCGIPDFRSRDGIYARLAVDFPDLPDPQAMFDIEYFRKDPRPFFKFAKEIYPGQFQPSLCHKFIALSDKEGKLLRNYTQNIDTLEQVAGIQRILQCHGSFATASCLICKYKVDCEAVRGDIFNQVVPRCPRCPADEPLAIMKPEIVFFGENLPEQFHRAMKYDKDEVDLLIVIGSSLKVRPVALIPSSIPHEVPQILINREPLPHLHFDVELLGDCDVIINELCHRLGGEYAKLCCNPVKLSEITEKPPRPQKELVHLSELPPTPLHISEDSSSPERTVPQDSSVIATLVDQATNNNVNDLEVSESSCVEEKPQEVQTSRNVENINVENPDFKAVGSSTADKNERTSVAETVRKCWPNRLAKEQISKRLEGNQYLFVPPNRYIFHGAEVYSDSEDDVLSSSSCGSNSDSGTCQSPSLEEPLEDESEIEEFYNGLEDDTERPECAGGSGFGADGGDQEVVNEAIATRQELTDVNYPSDKS
notes: as for B1
On to B2, for which the Km in data set [2] amounted to 14 µM.

By kcat/Km is commonly meant the turnover number divided by the Michaelis constant. By Km is commonly meant the concentration of substrate that gives half-maximal velocity. As usually defined, the kcat is the maximal rate divided by the concentration of active sites.
